Holding throughout (experiment): SPOT array
Assay [1] has as its target T1, Boi1 SH3 (BOI1_YEAST), P38041.
T1 chain: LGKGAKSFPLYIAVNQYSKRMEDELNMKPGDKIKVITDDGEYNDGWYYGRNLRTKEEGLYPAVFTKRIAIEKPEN

Assay [2] concerns the target T2, Yhr016c SH3 (YSC84_YEAST), P32793.
T2 chain: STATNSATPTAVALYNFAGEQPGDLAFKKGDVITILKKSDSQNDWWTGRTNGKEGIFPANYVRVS

The target of assay [3] is T3, Yfr024 SH3 (LSB3_YEAST), P43603.
T3 chain: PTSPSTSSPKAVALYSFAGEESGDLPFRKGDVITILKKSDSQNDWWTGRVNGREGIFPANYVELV

Assay [4] deals with Sho1 SH3 (SHO1_YEAST), P40073.
Sequence of Sho1 SH3 (SHO1_YEAST), P40073 (P40073 295-366): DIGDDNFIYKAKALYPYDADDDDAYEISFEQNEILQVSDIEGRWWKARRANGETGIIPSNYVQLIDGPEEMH
In assay [5] the target is T4, Boi2 SH3 (BOI2_YEAST), P39969.
T4 chain: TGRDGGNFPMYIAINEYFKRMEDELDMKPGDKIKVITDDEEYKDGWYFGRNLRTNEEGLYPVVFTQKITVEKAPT

Assay [6] has as its target T5, Myo5 SH3 (MYO5_YEAST), Q04439.
T5 chain: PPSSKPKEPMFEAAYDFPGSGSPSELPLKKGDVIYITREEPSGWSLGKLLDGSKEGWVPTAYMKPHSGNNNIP

The target in assay [7] is T6, Rvs167 SH3 (RV167_YEAST), P39743.
T6 chain: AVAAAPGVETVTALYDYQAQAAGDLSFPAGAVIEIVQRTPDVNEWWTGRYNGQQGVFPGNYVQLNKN

Take RYSFKLLPPQPGSK [YER114C 841-854]: the normalised SPOT signal, Boehringer light units (BLU); mean over the file's lines of this peptide was determined as 796 in assay [1]; 23.5 in assay [2]; 352 in assay [3]; 15500 in assay [4]; 47.8 in assay [5]; 190 in assay [6]. For the same molecule, the normalised SPOT signal, Boehringer light units (BLU); mean over the file's lines of this peptide in assay [7] came out at 84.
Take RTFFKLPPNLPEAE [YHR017W 94-107]: the normalised SPOT signal, Boehringer light units (BLU); mean over the file's lines of this peptide in assay [1] is 220; in assay [2] it was 32.8; in assay [3], 1050; in assay [4], 154; in assay [5] it was 5.1; in assay [6], 2610. Further, in assay [7], the normalised SPOT signal, Boehringer light units (BLU); mean over the file's lines of this peptide stood at 204.
RTPSKPDPMEPENT [YOR196C 194-207]: the normalised SPOT signal, Boehringer light units (BLU); mean over the file's lines of this peptide came out at 28.1 in assay [1]; 21.1 in assay [2]; 78.9 in assay [3]; 18 in assay [4]; 35.4 in assay [5]; 187 in assay [6]. In assay [7], this molecule came in with a normalised SPOT signal, Boehringer light units (BLU); mean over the file's lines of this peptide of 19.3.
With RYPFRMIPELPPKR [YMR004W 186-199], the normalised SPOT signal, Boehringer light units (BLU); mean over the file's lines of this peptide is 14100 in assay [1]; 7330 in assay [2]; 18600 in assay [3]; 2730 in assay [4]; 552 in assay [5]; 3570 in assay [6]. In assay [7], this molecule yielded a normalised SPOT signal, Boehringer light units (BLU); mean over the file's lines of this peptide of 14800.
Consider RRRTRLRPPTPLSQ [YPL269W 616-629], for which the normalised SPOT signal, Boehringer light units (BLU); mean over the file's lines of this peptide came to 137 in assay [1]; 104 in assay [2]; 819 in assay [3]; 76.1 in assay [4]; 41.1 in assay [5]; 1510 in assay [6]. The molecule also returned a normalised SPOT signal, Boehringer light units (BLU); mean over the file's lines of this peptide in assay [7] of 423.
For RSRSKKDPGIPSNF [YER006W 41-54], the normalised SPOT signal, Boehringer light units (BLU); mean over the file's lines of this peptide stood at 585 in assay [1]; 52.3 in assay [2]; 360 in assay [3]; 118 in assay [4]; 6.9 in assay [5]; 800 in assay [6]. Further, the normalised SPOT signal, Boehringer light units (BLU); mean over the file's lines of this peptide in assay [7] was 159.

For the origin of these results see PMC314469, “Protein Interaction Networks by Proteome Peptide Scanning” (PLoS Biology, 2004).
